# In patent US20030157553A1, “Methods of assaying for G protein-coupled receptor ligands and modulators” (priority 2000, published 2003):
# Key:
# β2AR [1] = assay: Agonist affinity shift assay ([125I] iodopindolol), formation of high agonist affinity complex (HAC); type: binding; conditions: 1 μM arrestin, FIG. 2A
# Source text: (§1) Mutagenesis and Biochemical Characterization of β-Arrestins—Mutations Arg169→Glu (CGG→GAG), Gln394→Ter (CAA→TAA), and Asp383→Ter (GAT→TAG) were introduced by polymerase chain reaction in β-arrestin construct pBARR (Gurevich et al. (1995) J. Biol. Chem. 270:720-731), that was used for in vitro transcription and translation, as described (Gurevich et al. (1995), supra). NcoI/HindIII 1404-base pair open reading frame was then subdloned into appropriately digested Escherichia coliexpression vector pTrcHisB (Invitrogen). […]
# Agonist Affinity ShiftAssay—P-β2AR or β2AR (10-15 fmol/assay) was incubated in 0.25 ml of 10 mM Tris-HCl, pH 7.4, 100 mM NaCl (buffer A) containing 0.1 mg/ml bovine serum albumin in the presence of 65-75 fmol of [^125I] iodopindolol (NEN Life Science Products) and the indicated concentrations of arrestins and agonists for 60 min at 22° C. […] Receptor-containing liposomes with bound radioligand were eluted with buffer A (between 0.6 and 1.5 ml), and radioactivity was quantitated in a liquid scintillation counter. Nonspecific binding was determined in the presence of 10 μM alprenolol. […]
# β2AR [2] = assay: Direct binding assay of in vitro translated tritiated arrestins to purified β2AR reconstituted into phospholipid vesicles; conditions: unphosphorylated β2AR, activated by 0.1 mM agonist isoproterenol; FIG. 1A
# Source text: as §1
# Direct Binding Assay—In vitro translated tritiated arrestins (50 fmol) were incubated in 50 mM Tris-HCl, pH 7.5, 0.5 mM MgCl2, 1.5 mM dithiothreitol, 50 mM potassium acetate with 7.5 pmol of the various functional forms of rhodopsin or with P-β2AR or β2AR (100 fmol/assay) in a final volume of 50 μl for 5 min at 37° C. in room light (rhodopsin) or for 60 min at 30° C. in the presence of 0.1 mM -agonist isoproterenol. […] Nonspecific binding determined in the presence of 0.3 μg of liposomes was subtracted.
molecule,measurement,setting,value
β-arrestin-(Arg169→Glu): bovine β-arrestin mutant Arg169→Glu that reverses the charge of the putative phosphorylation-sensitive trigger (protein) MGDKGTRVFKKASPNGKLTVYLGKRDFVDHIDLVEPVDGVVLVDPEYLKERRVYVTLTCAFRYGREDLDVLGLTFRKDLFVANVQSFPPAPEDKKPLTRLQERLIKKLGEHAYPFTFEIPPNLPCSVTLQPGPEDTGKACGVDYEVKAFCAENLEEKIHKRNSVRLVIEKVQYAPERPGPQPTAETTRQFLMSDKPLHLEASLDKEIYYHGEPISVNVHVTNNTNKTVKKIKISVRQYADICLFNTAQYKCPVAMEEADDTVAPSSTFCKVYTLTPFLANNREKRGLALDGKLKHEDTNLASSTLLREGANREILGIIVSYKVKVKLVVSRGGLLGDLASSDVAVELPFTLMHPKPKEEPPHREVPEHETPVDTNLIELDTNDDDIVFEDFARQRLKGMKDDKEEEEDGTGSPRLNDR,percentage of HAC formed by unphosphorylated β2AR,β2AR [1],22±4%
same,binding to activated unphosphorylated receptor,β2AR [2],significantly higher binding
